Molecular target: double-phosphorylated JNK1 (phospho-JNK1) (human, double-phosphorylated (sites not stated for this protein))
Assay: cell-based or functional assay

B1: MKP7-CD (F285D) (domain or fragment, human, UniProt Q9BY84 156-301, looked up)
chain: NIGPTRILPNLYLGCQRDVLNKELMQQNGIGYVLNASNTCPKPDFIPESHFLRVPVNDSFCEKILPWLDKSVDFIEKAKASNGCVLVHCLAGISRSATIAIAYIMKRMDMSLDEAYRFVKEKRPTISPNDNFLGQLLDYEKKIKNQ
phosphatase activity for JNK1 dephosphorylation, relative to wild-type MKP7-CD (Fig. 4a): ~10 fold

Reference: publication PMC4802042, “A conserved motif in JNK/p38-specific MAPK phosphatases as a determinant for JNK1 recognition and inactivation” (Nature Communications, 2016)
